In one experiment the target is T1, APC/C^Cdc20 (Saccharomyces cerevisiae, UniProt P26309+P53068).
T1 construct: APC/C was purified from yeast cells; made in house; host or cells: APC/C from S. cerevisiae W303 strain NHY13 (Cdc16-TAP, Apc1-GFP, cdh1 deleted); Cdc20 from Sf9 (baculovirus)
Nature of the experiment: SMOR assay, yeast APC/C^Cdc20. Format: binding. Conditions: for mean dwell time: representative of two independent experiments, ± SE, ligand ≤1 nM, buffer C + BSA. The protocol:
(§1) Yeast strains were derivatives of W303 and are listed in Supplementary Table 2. For APC/C purification, we used a strain carrying Cdc16-TAP and lacking Cdh1 (DOM1126); in most experiments, the strain also carried Apc1-GFP (NHY13). Yeast were grown in YPD media to OD600 = 0.8, collected and flash-frozen. Cells were lysed by bead beating in lysis buffer A (50 mM HEPES pH 7.5, 150 mM KCl, 10% glycerol, 0.2% Triton X-100, 63 µM B-glycerophosphate, 48 µM sodium fluoride, 1 µg ml^−1 pepstatin A, 1 µg ml^−1 leupeptin, 1 µg ml^−1 aprotinin, 1 mM PMSF, 1 mM DTT, 0.5 mM EDTA) and APC/C was purified using magnetic IgG beads. The beads were washed using wash buffer A (20 mM HEPES pH 7.5, 150 mM KCl, 10% Glycerol, 0.05% Triton X-100). After incubation with purified Cdh1 or Cdc20, the APC/C was cleaved off the beads with TEV protease in wash buffer A with 0.05% Tween-20 (for single-molecule studies) or 0.05% Triton X-100 (for ensemble assays such as ubiquitylation) and used immediately.
(§2) For all SMOR experiments, 24 × 50 mm high precision glass coverslips (Bioscience Tools) and drilled microscope slides were passivated with a combination of PEG and PEG-biotin (coverslips) or PEG only (slides) following a previously published protocol for SiMPull[31]. Reaction chambers (~20 µl) were created using double-sided tape and epoxy. Protein was immobilized on the surface with 0.2 mg ml^−1 NeutrAvidin in buffer C (20 mM HEPES pH 7.5, 150 mM KCl, 10% glycerol, 0.05% Tween-20, 1 mM DTT). Excess NeutrAvidin was washed away and incubated with either biotin-conjugated mouse monoclonal anti-Strep-Tag II antibody (LSBio, Cat. No. LS-C203632-100) or biotin-conjugated rabbit polyclonal anti-GFP antibody (Rockland, Cat. No. 600-406-215) diluted in buffer C + BSA (0.1 mg ml^−1; Molecular Biology Grade Bovine Serum Albumin). Activator WD40 and activated APC/C (typically 50 µl containing about 65 ng APC/C, of which only a small fraction is immobilized on the glass) were immobilized using anti-Strep-Tag II, while APC/C alone was immobilized with anti-GFP. SMOR results were similar when performed in the buffer (wash buffer B) used in polarization anisotropy.
(§3) To capture dynamic protein–protein interactions, dye-labeled substrate diluted in buffer C + BSA was added to the chamber containing immobilized proteins. Interactions were imaged by TIRF microscopy as described below. For optimal signal-to-noise ratio, peptide concentration was no greater than 1 nM. Protein substrates included Hsl1 aa 667–872 and a C-terminal HaloTag followed by a TAP tag, and were produced by translation in rabbit reticulocyte lysates using TnT Quick Coupled Transcription/Translation System (Promega) (see Supplementary Table 5 for plasmids). Protein was purified with magnetic IgG beads and labeled on the bead with JF549 or JF646 dye so that unbound dye could be washed away. Purified dye-labeled protein was then cleaved from the beads using TEV protease. Before adding substrate to the reaction chamber, oxygen scavenging reagents were added (10 nM protocatechuate-3,4-dioxygenase, 2.5 mM protocatechuic acid, and 1 mM Trolox)[41]. A detailed description of the SMOR analysis pipeline is found in Supplementary Note 1.
Microscopy was performed with a Nikon Eclipse TE2000-E with Perfect Focus with a 100 × 1.49na oil, Apo TIRF DIC N2, 0.13-0.2, WD0.12 objective. Movies were recorded using the Andor iXon DU-897E-CSO. For visualizing GFP-tagged protein, a 491 nm laser was used with an ET525/50 (Chroma) filter for emission. […]

The next experiment addresses T2, APC/C^Cdh1 (Saccharomyces cerevisiae, UniProt P53068+P53197).
T2 construct: APC/C was purified from yeast cells; made in house; host or cells: APC/C from S. cerevisiae W303 strain NHY13 (Cdc16-TAP, Apc1-GFP, cdh1 deleted); Cdh1 from Sf9 (baculovirus)
T2 sequence (P53068 whole entry, looked up): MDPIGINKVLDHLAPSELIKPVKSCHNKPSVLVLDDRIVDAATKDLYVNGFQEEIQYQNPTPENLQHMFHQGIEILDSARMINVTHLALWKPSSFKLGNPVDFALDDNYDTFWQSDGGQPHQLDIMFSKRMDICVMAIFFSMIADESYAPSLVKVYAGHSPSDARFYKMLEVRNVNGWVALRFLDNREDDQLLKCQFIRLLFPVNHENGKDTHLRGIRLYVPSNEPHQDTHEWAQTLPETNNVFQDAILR
T2 sequence (P53197 whole entry, looked up): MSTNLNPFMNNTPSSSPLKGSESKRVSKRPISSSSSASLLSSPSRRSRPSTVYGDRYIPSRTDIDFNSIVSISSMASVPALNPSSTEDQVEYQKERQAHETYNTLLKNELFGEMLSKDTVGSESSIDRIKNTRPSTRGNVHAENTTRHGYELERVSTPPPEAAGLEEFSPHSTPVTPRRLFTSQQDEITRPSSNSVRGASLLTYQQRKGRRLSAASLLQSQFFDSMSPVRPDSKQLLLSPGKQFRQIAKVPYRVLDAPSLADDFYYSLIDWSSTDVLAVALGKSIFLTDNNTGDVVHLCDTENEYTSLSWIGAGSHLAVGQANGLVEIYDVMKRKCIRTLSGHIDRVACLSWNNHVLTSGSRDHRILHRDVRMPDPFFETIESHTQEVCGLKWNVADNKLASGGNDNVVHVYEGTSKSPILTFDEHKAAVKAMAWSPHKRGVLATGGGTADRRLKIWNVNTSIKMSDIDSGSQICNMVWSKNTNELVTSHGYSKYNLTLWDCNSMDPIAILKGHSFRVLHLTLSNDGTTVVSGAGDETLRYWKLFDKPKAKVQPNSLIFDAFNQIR
In kind it is binding. Conditions: for mean dwell time: representative of two independent experiments, ± SE, ligand ≤1 nM, buffer C + BSA. The procedure:
as §1, §2, §3
Microscopy was performed with a Nikon Eclipse TE2000-E with Perfect Focus with a 100 × 1.49na oil, Apo TIRF DIC N2, 0.13-0.2, WD0.12 objective. Movies were recorded using the Andor iXon DU-897E-CSO. For visualizing GFP-tagged protein, a 491 nm laser was used with an ET525/50 (Chroma) filter for emission. For visualizing JF549-labeled substrate, a 561 nm laser was used with an ET595/50 (Chroma) filter for emission. For visualizing all Cy5-labeled peptides and JF646-labeled substrates, a 640 nm laser was used with an ET685/70 filter (Chroma) for emission. Initially, for each substrate tested, we acquired movies at multiple intervals to deduce the optimal interval to decrease bleaching. µManager version 2.0 was used to control the microscope and record time-lapse movies.

Where [1] appears, read: Supplementary Table 1, replicate 1 (movie listed first).
The mark [2] stands for this setting: Supplementary Table 1, replicate 2 (movie listed second).

The text below walks through data of paper PMC8764033, “Single-molecule analysis of specificity and multivalency in binding of short linear substrate motifs to the APC/C” (Nature Communications, 2022).

Several values for one entry are separate records, joined by “and”; a condition that tells them apart may be missing. Equal entries are not always repeated. Where two headings read alike, the source gives them in different places.

B1: Hsl1^Halo KEN & D: Hsl1 fragment (amino acids 667–872) with C-terminal HaloTag, JF549-labeled (protein)
chain: QNSASKRSLYSLQSISKRSLNLNDLLVFDDPLPSKKPASENVNKSEPHSLESDSDFEILCDQILFGNALDRILEEEEDNEKERDTQRQRQNDTKSSADTFTISGVSTNKENEGPEYPTKIEKNQFNMSYKPSENMSGLSSFPIFEKENTLSSSYLEEQKPKRAALSDITNSFNKMNKQEGMRIEKKIQREQLQKKNDRPSPLKPIQ
modifications: JF549 or JF646 dye covalently bound to the HaloTag; left off: HaloTag, C-terminal, kept | TAP, C-terminal, cleaved
notes: Hsl1 fragment (amino acids 667–872) with C-terminal HaloTag, JF549-labeled
B1: the “fold lower affinity/dwell time with APC/C^Cdc20 than with APC/C^Cdh1 (preference for APC/C^Cdh1)” value with APC/C^Cdc20 is recorded as 600 fold. The “Dwell Time” value with APC/C^Cdc20 (setting [1]) amounted to 0.518 ± 0.032 s; with APC/C^Cdc20 (setting [2]) it was 0.396 ± 0.027 s; with APC/C^Cdh1 it was 300 s; in the experiment with APC/C^Cdh1 (setting [1]), 321.161 ± 14.186 s; in the experiment with APC/C^Cdh1 (setting [2]), 268.262 ± 10.979 s. Also, the mean dwell time was 0.518 ± 0.03 s and 0.518 s with APC/C^Cdc20; 0.518 ± 0.03 s in the experiment with APC/C^Cdc20 (listed as Hsl1 fragment); 321 ± 14 s and 321 s with APC/C^Cdh1; “over 300 s” with APC/C^Cdh1 (listed as Hsl1); 321 ± 14 s with APC/C^Cdh1 (listed as Hsl1 fragment). Further, the “fold increase in affinity/dwell time, APC/C^Cdh1 vs Cdh1 alone” value with APC/C^Cdh1 turned out to be 6 fold.
